From patent publication US11298402B2, “Lysosomal degradation of lipids and proteins and method of use thereof” (University of Ottawa, priority 2015, dated 2022)

B1: Vps11: HOPS subunit overexpressed from plasmid (GFP-tagged) (protein)
chain: AAYLQWRRFVFFEKELVKEPLGNDGATPGAAPTSGPTASKFLCLPPGITVCDSGRGSLVFGDMEGQIWFLPRSLQLTGFQAYKLRVTHLYQLKQHNILASVGEDEEGINPLVKIWNLEKRDGGNPLCTRILPAIPGTEPTVVSCLTVHENLNFMAIGFTDGSVTLNKGDITRDRHSKTQILHKGSYPVTGLAFRQAGKTTHLFVVTTENVQSYIVSGKDYPRVELDTHGCGLRCSALSDPSQDLQFIVAGDECVYLYQPDERGPCFAFEGHKLIAHWFRGYLVIVSRDRKVSPKSEFTSRDSQNSDKQILNIYDLCNKFIAYSAVFEDVVDVLAEWGSLYVLTRDGRVHALQEKDTQTKLEMLFKKNLFEMAINLAKSQHLDSDGLAQIFMQYGDHLYSKGNHDGAVQQYIRTIGKLEPSYVIRKFLDAQRIHNLTAYLQTLHRQSLANADHTTLLLNCYTKLKDSSKLEEFIKTKSESEVHFDVETAIKVLRQAGYYSHALYLAENHAHHEWYLKIQLEDIKNYQEALRYIGKLPFEQAESNMKRYGKILMHHIPEQTTQLLKGLCTDYRPSLEGRGDREFPSCRANSEEFIPIFANNPRELKAFLEHMSEVQPDSPQGIYDTLLELRLQNWAHEKDPQAKEKLHAEAISLLKSGRFCDVFDKALVLCQMHDFQDGVLYLYEQGKLFQQIMHYHMQHEQYRQVIAVCERHGEQEPSLWEQALSYFARKEEDCKEYVAAVLRHIENKSLMPPLLVVQTLAHNSTATLSIIRDYLVQKLQKQSQQIAQDELRVRRYREETTRIRQEIQELKASPKIFQKTKCSICNSALELPSVHFLCGHSFHQHCFESYSESDADCPTCLPENRKVMDMIRAQEQKRDLHDQFQHQLKCSNDSFSVIADYFGRGVFNKLTLLTDPPTARLTPSLEAGLQRDLLMHSRRGT
B2: Vps39: HOPS subunit overexpressed from plasmid (GFP-tagged) (protein, UniProt Q96JC1 1-886, looked up)
Vam6/Vps39-like protein: MHDAFEPVPILEKLPLQIDCLAAWEEWLLVGTKQGHLLLYRIRKDVVPADVASPESGSCNRFEVTLEKSNKNFSKKIQQIHVVSQFKILVSLLENNIYVHDLLTFQQITTVSKAKGASLFTCDLQHTETGEEVLRMCVAVKKKLQLYFWKDREFHELQGDFSVPDVPKSMAWCENSICVGFKRDYYLIRVDGKGSIKELFPTGKQLEPLVAPLADGKVAVGQDDLTVVLNEEGICTQKCALNWTDIPVAMEHQPPYIIAVLPRYVEIRTFEPRLLVQSIELQRPRFITSGGSNIIYVASNHFVWRLIPVPMATQIQQLLQDKQFELALQLAEMKDDSDSEKQQQIHHIKNLYAFNLFCQKRFDESMQVFAKLGTDPTHVMGLYPDLLPTDYRKQLQYPNPLPVLSGAELEKAHLALIDYLTQKRSQLVKKLNDSDHQSSTSPLMEGTPTIKSKKKLLQIIDTTLLKCYLHTNVALVAPLLRLENNHCHIEESEHVLKKAHKYSELIILYEKKGLHEKALQVLVDQSKKANSPLKGHERTVQYLQHLGTENLHLIFSYSVWVLRDFPEDGLKIFTEDLPEVESLPRDRVLGFLIENFKGLAIPYLEHIIHVWEETGSRFHNCLIQLYCEKVQGLMKEYLLSFPAGKTPVPAGEEEGELGEYRQKLLMFLEISSYYDPGRLICDFPFDGLLEERALLLGRMGKHEQALFIYVHILKDTRMAEEYCHKHYDRNKDGNKDVYLSLLRMYLSPPSIHCLGPIKLELLEPKANLQAALQVLELHHSKLDTTKALNLLPANTQINDIRIFLEKVLEENAQKKRFNQVLKNLLHAEFLRVQEERILHQQVKCIITEEKVCMVCKKKIGNSAFARYPNGVVVHYFCSKEVNPADT
modifications: GFP tag

Tests used:
[1] = system: McA-RH7777 cells stably expressing human apoB-100 and human apoC-III (A18-C3); assay type: cell-based; settings: for effect on EPA-induced lipid degradation (CLD turnover): cells silenced, transfected or pre-treated, then EPA 0.4 mM, 6 h; for effect on lipid degradation when co-expressed with Arl8b^WT, Arl8b^Q75L or Arl8b^T34N: co-transfected cells, 6 h post-OA or -EPA
Method: (§1) In certain non-limiting examples described herein, McA-RH7777 cells stably expressing human apoB-100 and human apoC-III (designated A18-C3) were used for the studies. […] In addition, these studies, particularly those concerning EPA- or DHA-triggered lysosomal motility and CLD degradation, were also performed using primary rat hepatocytes. Transfection of plasmids encoding proteins of interest, or transfection of siRNA specific for silencing target gene expression, was achieved using the FuGENE HP Extreme reagent (Roche). Representative gene silencing siRNA sequences, which are not meant to be limiting, are described in Table 1, and plasmids encoding proteins of interest are described in Table 2. The effectiveness of siRNA silencing was verified by Western-blotting of cellular content of the target proteins, and by intracellular localization assay using siRNA-Tracker (Mirus Bioscience). Twenty-four h after plasmid transfection, or 48 h after siRNA transfection, the cells were cultured in lipid-rich media containing fetal bovine serum (20%) and OA (0.4 mM). The lipid-laden cells were switched to fresh media supplemented with OA or EPA (0.4 mM). In live imaging experiments, LipidTOX Red (Life Technologies) and LysoTracker (Life Technologies) were added to media prior to EPA treatment, to visualize lipid droplets and lysosomes, respectively. For visualizing peroxisomes, Peroxisome-GFP (Invitrogen) was introduced to the cells 24 h prior to experiments. Quantification of cell lipid contents was achieved either by direct mass measurement (HPTLC) and counting the number of lipid droplets using Image J Lipid Droplet Counter Plug-In, or indirectly by Western blot analysis of cellular content of ADRP. Secretion of apoB and TG-rich lipoprotein was determined by Western blot analysis and metabolic labeling. Mitochondrial β-oxidation was measured using MitoSOX Red (Life Technologies) in situ. Autophagic flux was determined by using Cyto-ID assay (Enzo Life Science) and by monitoring GFP-LC3 clustering in situ. Interaction of Arl8b and subunits of the HOPS complex was determined in situ by the proximity ligation assay (Olink Biosience). Cytoplasmic pH was measured using the cytosolic pHrodo indicator reagent (Invitrogen). Live imaging of fluorescent-tagged proteins was performed 1 h post-EPA treatment. Cells were also collected at the time of EPA treatment for transmission EM and tomography, as well as immuno-EM. For movies, cells were imaged at 60 sec intervals every 5 min, for a total of 30 min.
The A18-C3 cells were cultured in DMEM (Invitrogen) supplemented with fetal bovine serum (20%), penicillin (50 U/mL), streptomycin (50 μg/mL, Invitrogen) and Geneticin/G418 (500 μg/mL, Gibco) at 37° C. in 5% CO2. Transfection was conducted when cells were 60-70% confluence. Appropriate plasmids were mixed with FuGENE HP extreme reagent (Roche Diagnostic), according to manufacturer's protocol, and incubated for 30 min. Twenty-four h after transfection, cells were switched to lipid-rich media containing OA (0.4 mM) for additional 16 h prior to imaging and biochemical analysis. In silencing experiments, appropriate siRNAs were transfected into cells using the X-treme GENE siRNA regent (Roche Diagnostic). Localization of siRNA in transfected cells in situ was carried out using the Cy5 Label IT-siRNA Tracker (Minis Bioscience #7213) according to manufacturer's protocol. Forty-eight h after transfection, cells were switched to lipid-rich media containing OA (0.4 mM) for additional 16 h prior to imaging and biochemical analysis.
Quantification of lipid droplets was carried out using confocal and differential interface contrast (DIC) microscopy. Lipid droplets were stained with LipidTOX Red (Invitrogen) before adding OA or EPA. All images were visualized using a 63× oil immersion objective lens. Z-series stacks were acquired with 0.2 μm steps. […]

[2] = system: McA-RH7777 cells (A18-C3); assay: Live imaging of lysosomal motility and lysosome-CLD interaction (kiss-and-run); assay type: cell-based, rat; settings: for effect on EPA-triggered lysosomal motility / lysosomal interaction with CLD: cells silenced, transfected or pre-treated (15 min) before EPA
Method: as §1
Cells were grown on 35-mm glass bottom dishes (Ibidi GmbH München, Germany) for 16 h in DMEM supplemented with FBS (20%) and OA (0.4 mM). Cells were imaged using a Zeiss 510 META laser scanning confocal microscope with a heated CO2-controlled stage (5% CO2 at 37° C.). Images were captured at a frame-rate of 30 frame/sec using a 63×. N.A.1.4 objective. Recommended laser lines and filter combinations were used for each dye. For visualization of lipid droplets, lysosomes, mitochondria, and mitochondrial β-oxidation, the respective reagents LipidTOX Red (Invitrogen), LysoTracker (Life Technology), MitoTracker (Life Technology), MitoSox Red (Invitrogen), and Peroxisome-GFP BacMam2.0 (Invitrogen) were introduced into the cells, according to manufacturers' recommendations, prior to EPA treatment.
Cells were cultured with lipid-rich media containing OA (0.4 mM) for 16 h. The lipid-laden cells were switched to fresh media containing EPA (0.4 mM) for 1 h, and the lysosomal movement towards lipid droplets was recorded by time-lapse microscopy. Fluorescent intensity of lysosomal signals at the periphery of selected individual lipid droplet was measured using Image J Live Intensity Profiler Plug-in^31-33 over a period of 40 sec. Quantification for each condition was carried out for 60 individual lipid droplets from three independent experiments. Constant threshold was applied to all of the images in each experiment.

[3] = system: endogenous HOPS subunits (Vps41, Vps11, Vps39); assay: Proximity ligation assay (in situ co-IP) of Arl8b with HOPS subunits; assay type: cell-based, rat; settings: mCherry-tagged Arl8b
Method: as §1
Cells were transfected with plasmids encoding RFP-tagged Arl8b^WT, Arl8b^Q75L, or Arl8b^T34N. The cells were treated with OA for 16 h (baseline condition as control). […] Quantification of signals was done in a total of 50 cells under each condition from 3 independent experiments.

[4] = system: McA-RH7777 cells (A18-C3); assay: Immuno-EM of Arl8b organellar association; assay type: cell-based, rat; settings: RFP-tagged Arl8b in transfected cells, 1 h post-EPA
Method: For immunogold labeling, pellets of cells cultured in media containing OA or EPA (0.4 mM) were fixed with 0.5% glutaraldehyde and 4% paraformaldehyde in 0.1 M phosphate buffer (pH 7.4) and dehydrated through a series of graded ethanol dilutions, and embedded in LR White acrylic resin (London Resin Company). Ultrathin sections (80 nm) were placed on Formvar-coated nickel grids. For post-embedding immunolabeling, the sections were incubated with an anti-Arl8b antibody (Fitzgerald) for 1 h. For ^RFPArl8b-transfected cells, that primary antibody used was anti-RFP (Abcam). After washing with 0.2 M sodium cacodylate buffer containing 0.1% calcium chloride, pH 7.4, the samples were incubated with the secondary antibody conjugated with 10-nm gold particles. To increase contrast, the ultrathin sections were stained with 2% uranyl acetate for 6 min and Reynold's lead for 5 min. The grids were examined with a Tecnai 12 120 kV TEM as described above.

C57BL/6 mice = assay: Diet-induced fatty liver mouse model (high-fat-high-sucrose diet), Oil Red O; assay type: in vivo; settings: adenovirus injected 1 day before HFHS diet for up to 4 days
Method: The respective Arl8b^T34N (DN), Arl8b^Q75L (DA), and Arl8b^WT constructs, along with empty virus (EV; control treatment) were injected into mice 1 day prior to feeding with a high fat diet for up to 4 days. The livers were stained with Oil Red O to determine the lipid contents, under the expression of various forms of Arl8b.
In these experiments, C57BL/6 mice were injected with adenovirus encoding different variants, namely Arl8b^T34N, Arl8b^Q75L, and Arl8b^WT. In these mice, expression of Arl8b proteins encoded by the adenoviral vectors lasts at least a few weeks. Thus, 1-day after viral injection, the mice were placed on a high-fat-high-sucrose (HFHS) diet for up to 4 days.

hepatic cells = assay: Hepatic glucose uptake (fluorescent 2-NBDG assay); assay type: cell-based; settings: transfected cells treated with EPA

Row | Molecule | effect on EPA-induced lipid degradation (CLD turnover) [1] | duration of association between lysosomes and CLD (the on phase) ([2]; GFP-tagged Arl8b-expressing cells, EPA) | effect on EPA-triggered lysosomal motility / lysosomal interaction with CLD [2] | binding to endogenous HOPS subunits ([3]; cells treated with OA) | binding to endogenous HOPS subunits ([3]; upon addition of EPA) | organellar association (lysosome vs CLD) [4] | liver steatosis (Oil Red O) (C57BL/6 mice) | glucose uptake (hepatic cells) | effect on lipid degradation when co-expressed with Arl8b^WT, Arl8b^Q75L or Arl8b^T34N [1]
1 | Arl8b^WT: wild-type ADP-ribosylation factor-like protein 8b, overexpressed from plasmid or adenovirus; tagged forms used | An increase in lipid degradation | approximately 15 seconds | does not affect lysosomal motility | binds predominately to endogenous Vps41 and to a lesser extent Vps11 | binds to all three Vps proteins examined | dual presentation between lysosomes and CLD | steatosis became apparent | Low level of glucose uptake | 
2 | B1 | block lipid degradation |  | enhanced lysosomal-CLD interaction |  |  |  |  |  | invariably blocks lipid degradation
3 | B2 | promotes the process |  | does not interfere with termination of lysosomal lipid droplet engulfment process and dissociation from CLD |  |  |  |  |  | promotes the process
